Experimental data as given in publication PMC6152284, “Cloning and Characterization of Two Iridoid Synthase Homologs from Swertia Mussotii” (Molecules : A Journal of Synthetic Chemistry and Natural …, 2017).

B1: SmIS2 (Swertia mussotii) (protein)
chain: MSWWWTGAVAAAREKVYDERPKTSPSVALIIGVTGIVGNSLADILPLSDTPGGPWKVYGVARRPRPAWSEDHPVEYIQLDVYNAKETQSKLSPLTDITHIFWTTWANRPTEAECCQVNGAMLQNVIDAVLPNAPNLSHICIQTGHKHYIGPFETFGKIKPHETPFIEDVPRLDVPNFYYTLEDITLETCKKKEGLTWSVHRPAVIFGFSPYSMMNLIGSLCVYAAICKHENVPFTYPGTKGAWNCYSVASDADLIAEHQIWASVDPYAKNEAYNCSNGDLFKWKSLWKVLAEQFDLEYVEFDENQDYVSLAERMKDKGPVWDEIVKQNKLTPTKLEEVATFWFADVIFSGECMLDSMSKSKEHGFLGFRDTTKSLLSVVGKMKAHKIVP
notes: pET-28a, 6-His tags at N- and C-terminus (~46 kDa); E. coli BL21(DE3), purified
B2: SmIS1 (Swertia mussotii) (protein)
chain: MSWWWKRSVQAQNLPEKNQPNGVAETAGRYESVALVVGVTGIVGSSLAQVLKLPDTPGGPWKVYGVARRPCPAWLAKFHVEYIQCDVSNTEEAKTKLSPLKDVTHIFYVSWIGSEDCETNAVMFKNILYNIIPVAPNLKHISLQTGSKHYFGIFEEGSEAVPHESPYTEDLPRLNIPNFYHDLEDILFEETAKHGLTWCVQRPALIFGFSPCSLMNIVSTLSIYATICKHEKKPLVYPGSKASWNCYVDGADADLAAEHHIWAAVDPKAKNQVFNVKNGDVFKWKNVWKMLADEFEMEMVGYIEGNEQVSMAELMKDKDGVWDEIVKKHKLEDTKLKEIAAFWFADIAFSCVDLVMSVTKSREFGFLGFRDSMKSFKSCIHKMRDFKFIP
notes: pETMALc-H, N-terminal MBP fusion with 10 His (~88 kDa); E. coli BL21(DE3), purified

Tests used:
[1] = substrate: C/C(C=O)=C\CC/C(C)=C/C=O; experiment: purified protein; assay type: biochemical, Swertia mussotii; details: co-substrate NADPH, 20 mM MOPS pH 7.0, 40 °C, substrate stock contained 8-oxoneral isomer
[2] = substrate: NC(=O)C1=CN([C@@H]2O[C@H](COP(=O)(O)OP(=O)(O)OC[C@H]3O[C@@H](n4cnc5c(N)ncnc54)[C@H](OP(=O)(O)O)[C@@H]3O)[C@@H](O)[C@H]2O)C=CC1; experiment: purified protein; assay type: biochemical, Swertia mussotii; details: co-substrate 8-oxogeranial, 20 mM MOPS pH 7.0, 40 °C, varied: cofactor

Row | Protein | Km ([1]; His-tagged) | kcat ([1]; His-tagged) | kcat/Km ([1]; His-tagged) | Km ([2]; His-tagged) | kcat ([2]; His-tagged) | kcat/Km ([2]; His-tagged) | Km ([1]; MBP fusion) | kcat ([1]; MBP fusion) | kcat/Km ([1]; MBP fusion) | Km ([2]; MBP fusion) | kcat ([2]; MBP fusion) | kcat/Km ([2]; MBP fusion)
1 | B1 | 54.37 ± 4.29 µM | 0.034 ± 0.001 s⁻¹ | 629 ± 75.9 M⁻¹ s⁻¹ | 41.83 ± 7.2 µM | 0.026 ± 0.01 s⁻¹ | 628 ± 105 M⁻¹ s⁻¹ | – | – | – | – | – | –
2 | B2 | – | – | – | – | – | – | 7.29 ± 1.59 µM | 0.11 ± 0.007 s⁻¹ | 15600 ± 4350 M⁻¹ s⁻¹ | 77.94 ± 6.03 µM | 0.135 ± 0.01 s⁻¹ | 1732 ± 11.3 M⁻¹ s⁻¹
